Assay: yeast display, Sf9 membrane polyspecificity reagent, FACS + sequencing; frameworks hold sequencing errors
Procedure, shortened: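 Galactose induction of a Saccharomyces cerevisiae BJ5465 synthetic nanobody display library ran 36–48 hours. The cells were then stained for 1 hour at 4 °C with 10% biotinylated, detergent-solubilized Sf9 membrane reagent, pulled down on streptavidin microbeads and FACS-sorted into low and high (top ~1%) gates on expression and reagent-binding fluorescence. Labels for polyreactivity follow the gate of origin.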
In the case of “QVQLVESGGGLVQAGGSLRLTCAASGFTFHSYAMGWYRQSPGTERELVAAISARGGSTYYADSVKGRLTISRDNAKNTVYLQMNSLKPEDTAFYYCAAYSYQVRFYYWGQGTQVTVSS”, the “polyreactivity (PSR sort gate)” value was “high polyreactivity”. In the case of “QVQLVESGGGLVQAGGSLRLTCAASGFTFRRYAMGCYRKAPGKERLLVAAISYSGGITYYADSVKGRFTISRDNAKNTVYLHMNSLKAEDTAVYYCAADYFAPYKTYDYWGQGTQVTVSS”, the “polyreactivity (PSR sort gate)” value was “high polyreactivity”. For “QVQLVESGGGLVQAGGSLRLTCAASGGILYYNAMGWYRQAPGKEREVVAAISRSGITYYADSVKGRFTISRDNAKNTVYLQMNSLKPEDTAVYYSNTVPWRRWGYDYWGQGTQVTVSS”, the “polyreactivity (PSR sort gate)” value was “high polyreactivity”. With “QVQLVESGGGLVQAGGSLRLTCAASGGTFQYYSMGWYRQAPGKERELVAAITTSGGSTYYADSVKGRFTISRDNAKNTDYLQMNSLKPEDTAVYYCAAGRGYRGYVRYYYWGQGTQVTVSS” the “polyreactivity (PSR sort gate)” value was “high polyreactivity”. In the case of “QVQLVESGGGLVQAGGSLRLTCAASGGTFRLYAMGWYRQAPGKERELVAAISSTGSTYYAASVKGRFTISRDNAKNTVYLQMNSLKPEDTAVYYCNAKLPVTSLKFDYYYWGQGTQVTVSS”, the “polyreactivity (PSR sort gate)” value was “high polyreactivity”. In the case of “QVQLVESGGGLVQAGGSLRLTCAASGIIFKLYAMGWYRQAPGKEREFVATITKTGGRTYYADSVKGRFTISRDNAKNTVYLQMNSLKPEDTAVDYCAARRVNGKMYYWGQGTQVTVSS”, the “polyreactivity (PSR sort gate)” value was “high polyreactivity”. In the case of “QVQLVESGGGLVQAGGSLRLTCAASGITFFQYAMGWYRQAPGKERELVAAITWSGGDTYYADSVKGRFTISRDNAKITVYLQMNSLKPEDTAVYYCAAEYVVQYYVYGYTLGYDYWGQGTQVTVSS”, the “polyreactivity (PSR sort gate)” value was “high polyreactivity”. For “QVQLVESGGGLVQAGGSLRLTCAASGITFTSYVMGWYRQAPGKERELVAAIRWSGGRTYYADSVKGRFTISRDNAKNSVYLQMNSLKPEDTAVYYCNRVTRSHVDYWGQGTQVTVSS”, the “polyreactivity (PSR sort gate)” value was “high polyreactivity”. With “QVQLVESGGGLVQAGGSLRLTCAASGITFYSYAMGWYRQAPGKERELVAAITRSGGSTYYADSVKGRFTISRDNAKNTVYLQMNSLKPEDTAVYYCAADEGRVFSGGYDYWGQGTQVTVSS” the “polyreactivity (PSR sort gate)” value was “high polyreactivity”. In the case of “QVQLVESGGGLVQAGGSLRLTCAASGLIFFTPYALGWYRQAPGTESELVAVITWRGASTYYADSVKGRFTISRDNAKHTVYFQMNSLKPEDTAVYYCAAKLCSVWKESYDSWGQGTQVTVSS”, the “polyreactivity (PSR sort gate)” value was “low polyreactivity”. With “QVQLVESGGGLVQAGGSLRLTCAASGLILDGYAMGWYRQAPGKERELVAAITRSGGRTYYADSVKGRFTISRDNAKNTVYLQMNSLKPEDTAVDYCAADTYRYHLIATDDYWGQGTQVTVSS” the “polyreactivity (PSR sort gate)” value was “high polyreactivity”. With “QVQLVESGGGLVQAGGSLRLTCAASGLISTPNALGWYRQAPGKEREFVASISSRGGSTYYADSVKGRFTISRDNAMNTVYLQMNSLKPEDTAVYYCAADAYREFYYEYYYWGQGTQVTVSS” the “polyreactivity (PSR sort gate)” value was “low polyreactivity”. With “QVQLVESGGGLVQAGGSLRLTCAASGLTFPKYAMGWYRQAPGKERELVAAITQRGGSTYYADSVKGRFTISRDNAKNTVYLQMNSLKPEDTAVYYCNARRRDYNNRREFDYWGQGTQVTVSS” the “polyreactivity (PSR sort gate)” value was “high polyreactivity”. In the case of “QVQLVESGGGLVQAGGSLRLTCAASGLTFRSYTMRWYRQAPGTERELVAAITFRGGSTYYADSLKGRFTISRDNAKNTVYLQMNSLKPEDTAVYYSAAVAIRRSVPVPRFDYWGQGTQVTVSS”, the “polyreactivity (PSR sort gate)” value was “high polyreactivity”. In the case of “QVQLVESGGGLVQAGGSLRLTCAASGLTFTTYALGWYRQAPGKERELVAAISRRGSRTYYADSVKGRFTISRDNAKNTVYLQMNSLKPEDTAVYYCNALTGSFKTYSFDYWGQGTQVTVSS”, the “polyreactivity (PSR sort gate)” value was “high polyreactivity”. In the case of “QVQLVESGGGLVQAGGSLRLTCAASGNIFISYAMGWYRQAPGKEMELVAAISRSGGSTYYADSVKGRFTISRDNEKNSVYLLMNSLKPEDTAVYYCAAYIGQGRYGSWGQGTQVNVSS”, the “polyreactivity (PSR sort gate)” value was “high polyreactivity”.

Source: the nanobody polyreactivity screen of Harvey et al. (2022)
